From patent US20240343791A1 (YUANPU BIOTECHNOLOGY WUHAN, published 2024)

Molecular target: T1, human VEGFC (Cat. No. Z03286, Genscript) (human, UniProt P49767 112-227, limits assumed)
T1 construct: Bought protein; also called VC
T1 sequence (looked up): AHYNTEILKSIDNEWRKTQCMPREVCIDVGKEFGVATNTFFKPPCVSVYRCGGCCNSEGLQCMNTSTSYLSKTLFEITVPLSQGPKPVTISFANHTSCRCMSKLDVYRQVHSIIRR
Assay: SPR (Biacore), protein captured on protein A chip, VEGFC as analyte, 25 C
Protocol: Human VEGFC (Cat. No.: Z03286-10 μg, Genscript, China) solutions with concentrations of 10, 5, 2.5, 1.25, 0.63, 0.31, 0.16, 0.08, and 0 (blank) nM were produced by diluted into a running buffer. Each analysis cycle comprises: (1) capturing the bispecific protein on flow pool 2 (Fc2), (2) injecting the VEGFC solution onto flow cells 1 and 2 (Fc1 and Fc2) at a rate of 30 μL/minute (for 120 seconds), (3) allowing 1×HBS-EP+buffer to flow at 30 μL/minute through the chip for 360 seconds to monitor the dissociation phase, (4) injecting a 10 mM glycine hydrochloride buffer, pH 1.5, to allow surface regeneration of the chip. The data was processed by Biacore™ Insight Evaluation software, using standard double reference and fitting with a 1:1 binding model, to determine the binding rate (kₐ) and dissociation rate (kd).

B1: OPT-302 (other, not shown: a dimerising Fc or GST; small tags and cut ends)
chain: YSMTPPTLNITEESHVIDTGDSLSISCRGQHPLEWAWPGAQEAPATGDKDSEDTGVVRDCEGTDARPYCKVLLLHEVHAQDTGSYVCYYKYIKARIEGTTAASSYVFVRDFEQPFINKPDTLLVNRKDAMWVPCLVSIPGLNVTLRSQSSVLWPDGQEVVWDDRRGMLVSTPLLHDALYLQCETTWGDQDFLSNPFLVHITGNELYDIQLLPRKSLELLVGEKLVLNCTVWAEFNSGVTFDWDYPGKQAERGKWVPERRSQQTHTELSSILTIHNVSQHDLGSYVCKANNGIQRFRESTEVIVHE
notes: captured on protein A chip
Kd: 0.562 nM | koff: 0.0033 s⁻¹ | kon: 5.87e+06 M⁻¹ s⁻¹
